This passage reports Kd, koff and kon results from patent publication US20150218255A1 (US Dept. of Health and Human Services, published 2015).

In assay [1] the target is T1, DENV envelope domain III, serotype 1 (antigen of the Biacore assays) (Dengue virus serotype 1 (consensus …, UniProt P17763 571-674)).
T1 construct: also called DIII serotype 1; DIII.1
T1 chain: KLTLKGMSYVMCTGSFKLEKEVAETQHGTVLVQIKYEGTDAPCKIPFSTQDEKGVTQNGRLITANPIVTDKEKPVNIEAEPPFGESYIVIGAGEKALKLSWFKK
Description: SPR (Biacore). (In general: In SPR one partner is held on a chip, and binding of the other changes the refractive index at the surface.)

For assay [2], the target named is T2, DENV envelope domain III, serotype 4 (antigen of the Biacore assays) (Dengue virus serotype 4 (consensus …, UniProt P09866 570-673)).
T2 construct: also called DIII serotype 4; DIII.4
Description: SPR (Biacore).

Assay [3] concerns the target T3, DENV envelope domain III, serotype 3 (antigen of the Biacore assays) (Dengue virus serotype 3 (consensus …, UniProt Q5UB51 569-672)).
T3 construct: also called DIII serotype 3; DIII.3
Description: SPR (Biacore).

Assay [4] deals with T4, DENV envelope domain III, serotype 2 (antigen of the Biacore assays) (Dengue virus serotype 2 (consensus …, UniProt P14337 571-674)).
T4 construct: also called DIII serotype 2; DIII.2
Description: SPR (Biacore).

Assay [5] addresses T1, DENV envelope domain III, serotype 1 …. Description: SPR (Biacore).
Assay [6] concerns the target T2, DENV envelope domain III, serotype 4 …. Description: SPR (Biacore). The source holds these as a separate data set.
In assay [7] the target is T3, DENV envelope domain III, serotype 3 …. The assay is described as follows: SPR (Biacore). This is another data set of the same source.
Assay [8] addresses T4, DENV envelope domain III, serotype 2 …. The assay is described as follows: SPR (Biacore). This is another data set of the same source.
The target of assay [9] is T1, DENV envelope domain III, serotype 1 …. Description: SPR (Biacore X100), scFv m366 immobilised on CM5, antigen injected, 1:1 Langmuir fit.
In assay [10] the target is T2, DENV envelope domain III, serotype 4 …. The assay is described as above.
In assay [11] the target is T3, DENV envelope domain III, serotype 3 …. Described as above.
Assay [12] addresses T4, DENV envelope domain III, serotype 2 …. The assay is described as above.

Numbering of substitutions follows the chain as printed.

T3 sequence (Q5UB51 569-672 limits assumed): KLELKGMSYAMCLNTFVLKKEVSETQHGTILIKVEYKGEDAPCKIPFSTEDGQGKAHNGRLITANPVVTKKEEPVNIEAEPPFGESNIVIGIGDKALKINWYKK
T2 sequence (P09866 570-673 limits assumed): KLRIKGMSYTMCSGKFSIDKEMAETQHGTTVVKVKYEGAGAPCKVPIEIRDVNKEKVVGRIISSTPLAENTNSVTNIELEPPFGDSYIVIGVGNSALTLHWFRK
T4 sequence (P14337 571-674 limits assumed): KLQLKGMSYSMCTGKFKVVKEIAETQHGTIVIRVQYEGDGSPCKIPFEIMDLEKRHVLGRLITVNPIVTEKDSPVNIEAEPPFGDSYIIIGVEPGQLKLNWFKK

B1: human anti-dengue virus antibody scFv m360 (scFv)
scFv: QVTLKESGPTLVKRTQTLTLTCTFFGFSLSTSGMRVSWIRQPPGKALEWIARIDWDDDKFYSISLKSRLTISKDTSKNQVVLTMTNMDPVDTATYYCARTPYNWNDGPRGAFDIWGQGTMVTVSSEGGGSGGGASSGGGSQSVLTQPPSVSAAPGQKVTIPCSGSYSNIRNNYVSWYQQLPGTAPKLLIYDDNKRPSGIPDRFSGSKSGTLATLVITGLQSGDEADYYCGTWDSSLSGVVFGGGTKLTVLG
notes: also called antibody m360
Take B1: the Kd (as a rule, the concentration at which binding is half-saturated) worked out at 5.84 nM in [1], 82.8 nM in [2], 0.116 nM in [3] and 5.13 nM in [4].

B2: human anti-dengue virus antibody scFv m360.6 (scFv)
scFv: KVTLKESGPTLVKPRQTLTLTCTFSGFSLSTSGMRVSWVRQPPGKALEWIARIDWDDDKFYSTSLKTRLTISKDTFKNQVVLTMTNMDPVDTAMYYCVRTPYNWNDGPRGALDIWGQGTMVTVSSGGDRSDGGASGGGGSQSMLTQSPSVSAAPGQNVTISCSGDYPNIRNNYVSWYQQLPGAAPKLLIYDNNKRPSGIPDRFSGSKSGTSATLDITGLQTGDEADYYCGAWDSRLSAVVFGGGTKLTVLG
notes: also called antibody m360.6
On to B2, for which the Kd is 0.31 nM in assay [5], 33 nM in assay [6], 0.0023 nM in assay [7] and 0.24 nM in [8].

B3: human anti-dengue virus antibody scFv m366 (scFv)
scFv: QLQLQESGGGLVQPGGSLRLSCAASGFTFSSYSMNWVRQAPGKRLEWVSSISGSSSYIYYADSVKGRFTISRDNAKNSLYLQMDSLRAEDTAVYYCARYAAGIWTFDIWGQGTTVTVSSGGGGSGGGASGGGGSSYELTQPPSVSVAPGKTASISCGGDNIGRKSVHWFQQKPGQAPVLVLYDDSDRPSGIPARFSGSNSGNTATLTISRVEAGDEADYYCQVWARSSDHPNWVFGGGTKLTVLG
notes: also called antibody m366
Turning to B3, the Kd amounted to 6.14 nM in assay [9], 12.4 nM in [10], 1.09 nM in assay [11] and 2.51 nM in assay [12]. For the same molecule, the koff (as a rule, the first-order rate constant of dissociation) in assay [11] was 0.000204 s⁻¹. In addition, the kon (as a rule, the second-order rate constant of association) in assay [11] is 186000 M⁻¹ s⁻¹.

B4: human anti-dengue virus antibody scFv m366.6 (scFv)
scFv: B3 scFv with Y32H, V37I, G53S, K65R, A100M, T114M, R210G, H230L
notes: also called antibody m366.6
On to B4, for which the Kd worked out at 0.44 nM in assay [5], 0.75 nM in assay [6], 0.27 nM in assay [7] and 0.29 nM in assay [8].
